Where a chain is given by its changes, count along the chain named. Numbers in names are those of the source.
B1: AL0559 (antibody, human IgG1, kappa, V domains shown)
VH: QVQLVESGGGVVQPGRSLRLSCAASGFTFSAYAMNWIRQPPGKGLEWIGLIYGSGSTFYASWAKGRVTISVDTSKNQFSLKLSSVTAADTAVYYCARGRSVNYNSDFHLWGQGTLVTVSS
VL: DIQMTQSPSSLSASVGDRVTITCQASQSLHDKKNLAWYQQKPGQPPKLLIYGASTLESGVPSRFSGSGSGTDFTLTISSLQPEDFATYYCQGEFSCSSADWNTFGQGTKVEIKR
notes: COS0637temp with VL C95dW (Kabat), already in the VL entry
B2: AL0560 (antibody, human IgG1, kappa, V domains shown)
VH: B1 VH
VL: B1 VL with W101Y
notes: COS0637temp with VL C95dY (Kabat), already in the VL entry
B3: AL0736 (antibody, human IgG1, kappa, V domains shown)
VH: B1 VH
VL: B1 VL with C96R, W101L
notes: COS0637temp with VL C94R/C95dL (Kabat), already in the VL entry
B4: AL0738 (antibody, human IgG1, kappa, V domains shown)
VH: B1 VH
VL: B1 VL with C96L, W101L
notes: COS0637temp with VL C94L/C95dL (Kabat), already in the VL entry
B5: AL0739 (antibody, human IgG1, kappa, V domains shown)
VH: B1 VH
VL: B1 VL with C96V, W101L
notes: COS0637temp with VL C94V/C95dL (Kabat), already in the VL entry
B6: AL0741 (antibody, human IgG1, kappa, V domains shown)
VH: B1 VH
VL: B1 VL with C96W, W101Q
notes: COS0637temp with VL C94W/C95dQ (Kabat), already in the VL entry
B7: AL0742 (antibody, human IgG1, kappa, V domains shown)
VH: B1 VH
VL: B1 VL with C96W, W101R
notes: COS0637temp with VL C94W/C95dR (Kabat), already in the VL entry
B8: AL0745 (antibody, human IgG1, kappa, V domains shown)
VH: B1 VH
VL: B1 VL with C96E, W101L
notes: COS0637temp with VL C94E/C95dL (Kabat), already in the VL entry
B9: AL0746 (antibody, human IgG1, kappa, V domains shown)
VH: B1 VH
VL: B1 VL with C96R, W101Y
notes: COS0637temp with VL C94R/C95dY (Kabat), already in the VL entry
B10: AL0747 (antibody, human IgG1, kappa, V domains shown)
VH: B1 VH
VL: B1 VL with C96M, W101R
notes: COS0637temp with VL C94M/C95dR (Kabat), already in the VL entry
B11: AL0748 (antibody, human IgG1, kappa, V domains shown)
VH: B1 VH
VL: B1 VL with C96I, W101F
notes: COS0637temp with VL C94I/C95dF (Kabat), already in the VL entry
B12: AL0749 (antibody, human IgG1, kappa, V domains shown)
VH: B1 VH
VL: B1 VL with C96L, W101R
notes: COS0637temp with VL C94L/C95dR (Kabat), already in the VL entry
B13: AL0750 (antibody, human IgG1, kappa, V domains shown)
VH: B1 VH
VL: B1 VL with C96M, W101L
notes: COS0637temp with VL C94M/C95dL (Kabat), already in the VL entry
B14: AL0751 (antibody, human IgG1, kappa, V domains shown)
VH: B1 VH
VL: B1 VL with C96A, W101V
notes: COS0637temp with VL C94A/C95dV (Kabat), already in the VL entry
B15: AL0752 (antibody, human IgG1, kappa, V domains shown)
VH: B1 VH
VL: B1 VL with C96V, W101A
notes: COS0637temp with VL C94V/C95dA (Kabat), already in the VL entry
B16: AL0753 (antibody, human IgG1, kappa, V domains shown)
VH: B1 VH
VL: B1 VL with C96V, W101V
notes: COS0637temp with VL C94V/C95dV (Kabat), already in the VL entry
B17: COS0637cc-TT91R (antibody, human IgG1)
heavy: QSLEESGGRLVTPGTPLTLTCTASGFSLSAYAMNWVRQAPGKGLEWIGLIYGSGSTFYASWAKGRFTISKTSTTVDLKMTSLTTEDTATYFCARGRSVNYNSDFKLWGPGTLVTVSSASTKGPSVFPLAPSSKSTSGGTAALGCLVKDYFPEPVTVSWNSGALTSGVHTFPAVLQSSGLYSLSSVVTVPSSSLGTQTYICNVNHKPSNTKVDKRVEPKSCDKTHTCPPCPAPEYLGGDSVFLFPPKPKDVLMISRTPEVTCVVIDVSHEDPEVKFNWYVDGVEVHNAKTKPREEQYNSTYRVVSVLPVLHRDWLNGKEYKCKVSNKALPKPIEKTISKAKGQRREPQVYTLPPSREEMTKNQVSLTCLVKGFYPSDIAVEWESNGQPENNYKTTPPVLDSDGSFFLYSKLTVDKSRWQQGNVFSCSVLHEALHAHTTRKELSLSP
light: QVLTQTPSSVSAAVGGTVTINCQASQSLHDKKNLAWYQHKPGQRPNLLIYGASTLESGVPSRFKGSGSGTEYTLTISDLECDDAAAYYCQGEFSCSSADCNTFGGGTKVEIKRTVAAPSVFIFPPSDEQLKSGTASVVCLLNNFYPREAKVQWKVDNALQSGNSQESVTEQDSKDCTYSLSSTLTLSKADYEKHKVYACEVTHQGLSSPVTKSFNRGEC
notes: Rabbit variable regions (chimera) with modified human IgG1 CH TT91R and modified human CL KOMC; also called COS637cc-TT91R
B18: COS0637pHv7-TT91R (antibody, V domains shown)
VH: B1 VH with S56H, T57E, K64E, G65E, V101K
VL: B1 VL with S28I, G52Q, T55Q, Q91H, C96Y, W101L
B19: COS0637h-TT91R (antibody, human IgG1, V domains shown)
VH: B1 VH with H108K
VL: B1 VL with W101C
notes: Humanized COS0637cc; modified human IgG1 CH TT91R, human CL SK1
B20: COS0637pHv1-TT91R (antibody, V domains shown)
VH: B1 VH with G55K, K64E, V101K
VL: B1 VL with W101C
B21: COS0637pHv2-TT91R (antibody, V domains shown)
VH: B1 VH with T28R, S54K, G65E
VL: B1 VL with W101C

How the values were obtained:
[1] = molecular target: T1, recombinant human C1r2s2 tetramer (human, UniProt P09871 16-688; P00736 18-705); test: SPR (BIACORE), antibody captured by ProL, human C1r2s2 injected at 100 nM, pH 7.4, 37 C
T1 construct: C1s and C1r co-expressed in HEK293/FreeStyle 293-F and purified from conditioned medium
T1 chain 1: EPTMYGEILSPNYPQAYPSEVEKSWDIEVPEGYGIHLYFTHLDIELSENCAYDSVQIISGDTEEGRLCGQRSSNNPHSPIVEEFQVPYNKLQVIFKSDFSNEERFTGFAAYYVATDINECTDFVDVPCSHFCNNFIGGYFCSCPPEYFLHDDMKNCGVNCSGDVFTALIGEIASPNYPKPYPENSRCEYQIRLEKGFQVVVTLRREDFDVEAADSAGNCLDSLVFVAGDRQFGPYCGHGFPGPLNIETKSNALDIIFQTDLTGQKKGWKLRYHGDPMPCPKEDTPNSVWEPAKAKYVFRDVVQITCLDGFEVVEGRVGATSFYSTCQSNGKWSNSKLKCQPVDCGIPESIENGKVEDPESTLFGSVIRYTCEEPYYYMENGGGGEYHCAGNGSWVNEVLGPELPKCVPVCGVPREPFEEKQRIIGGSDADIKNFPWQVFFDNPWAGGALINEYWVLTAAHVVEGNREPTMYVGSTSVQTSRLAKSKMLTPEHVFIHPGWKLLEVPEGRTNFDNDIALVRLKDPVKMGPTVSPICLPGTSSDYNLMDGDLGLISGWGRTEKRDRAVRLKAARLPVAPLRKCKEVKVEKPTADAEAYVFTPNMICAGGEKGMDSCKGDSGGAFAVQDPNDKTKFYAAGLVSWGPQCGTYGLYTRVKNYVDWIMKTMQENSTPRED
T1 chain 2: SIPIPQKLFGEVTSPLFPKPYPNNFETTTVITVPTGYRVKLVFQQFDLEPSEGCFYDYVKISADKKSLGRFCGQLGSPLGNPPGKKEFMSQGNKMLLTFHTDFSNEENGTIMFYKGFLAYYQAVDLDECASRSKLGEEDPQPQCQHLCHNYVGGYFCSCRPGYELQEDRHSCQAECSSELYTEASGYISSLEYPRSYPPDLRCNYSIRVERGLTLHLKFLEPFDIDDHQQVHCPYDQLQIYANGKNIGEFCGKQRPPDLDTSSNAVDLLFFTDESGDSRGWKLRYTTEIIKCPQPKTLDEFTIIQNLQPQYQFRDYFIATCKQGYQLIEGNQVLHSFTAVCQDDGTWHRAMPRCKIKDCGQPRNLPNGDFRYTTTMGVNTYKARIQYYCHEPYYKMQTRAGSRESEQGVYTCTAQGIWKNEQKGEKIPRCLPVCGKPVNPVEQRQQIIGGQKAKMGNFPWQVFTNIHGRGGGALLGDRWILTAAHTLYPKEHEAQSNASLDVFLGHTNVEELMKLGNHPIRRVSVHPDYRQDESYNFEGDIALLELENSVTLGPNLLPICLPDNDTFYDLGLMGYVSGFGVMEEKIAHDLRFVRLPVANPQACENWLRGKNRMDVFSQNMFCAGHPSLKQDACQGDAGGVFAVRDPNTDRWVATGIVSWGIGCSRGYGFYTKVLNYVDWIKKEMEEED
How it was run: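 Antibody variants captured on a protein L surface (~200 RU) were probed with recombinant human C1r2s2 at 25 and 100 nM, followed by dissociation. Run at pH 7.4 and 37 degrees C in ACES buffer containing 1.2 mM CaCl2, BSA and CM-dextran. Regeneration was with glycine-HCl pH 1.5.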

[2] = molecular target: T1, recombinant human C1r2s2 tetramer; test: SPR (BIACORE T200), 37 C, ratio of KD at pH 5.8 to KD at pH 7.4
Method: (§1) KD (dissociation constant) value of each samples at pH 7.4 and pH 5.8 are determined at 37 degrees C. using BIACORE® T200 instrument (GE Healthcare). Purified Mouse Anti-Human Ig kappa Light Chain (GE Healthcare) can be immobilized onto all flow cells of a CMS sensor chip using an amine coupling kit (GE Healthcare). 20 mM ACES, 150 mM NaCl, 1.2 mM CaCl2, 1 mg/mL BSA (IgG-free), 1 mg/mL CMD, 0.05% Tween® 20, 0.005% NaN3, pH 7.4 or pH 5.8 buffer were used as running buffer. Each antibody can be captured onto the sensor surface by Anti-Human Ig kappa Light chain. Antibody capture levels are aimed at 50 resonance unit (RU). […] Sensor surface is regenerated each cycle with, e.g., Glycine pH 2.0 (GE Healthcare). KD values were obtained using BIACORE® T200 Evaluation software, version 2.0 (GE Healthcare).

[3] = molecular target: T1, recombinant human C1r2s2 tetramer; test: SPR (BIACORE T200), 37 C, Ab captured via anti-human Ig kappa, human C1r2s2 as analyte, pH 5.8
Method: as §1

[4] = molecular target: T1, recombinant human C1r2s2 tetramer; test: SPR (BIACORE T200), 37 C, Ab captured via anti-human Ig kappa, human C1r2s2 as analyte, pH 7.4
Method: as §1

Binder | binding result [1] | KD (pH 5.8)/KD (pH 7.4) [2] | Kd [3] | Kd [4]
B1 | no binding (tested: 100 nM) | – | – | –
B2 | no binding (tested: 100 nM) | – | – | –
B3 | no binding (tested: 100 nM) | – | – | –
B4 | no binding (tested: 100 nM) | – | – | –
B5 | no binding (tested: 100 nM) | – | – | –
B6 | no binding (tested: 100 nM) | – | – | –
B7 | no binding (tested: 100 nM) | – | – | –
B8 | no binding (tested: 100 nM) | – | – | –
B9 | no binding (tested: 100 nM) | – | – | –
B10 | no binding (tested: 100 nM) | – | – | –
B11 | no binding (tested: 100 nM) | – | – | –
B12 | no binding (tested: 100 nM) | – | – | –
B13 | no binding (tested: 100 nM) | – | – | –
B14 | no binding (tested: 100 nM) | – | – | –
B15 | no binding (tested: 100 nM) | – | – | –
B16 | no binding (tested: 100 nM) | – | – | –
B17 | – | 10 | 43.3 nM | 4.48 nM
B18 | – | 72 | 353 nM | 4.9 nM
B19 | – | 14 | 362 nM | 25.4 nM
B20 | – | 209 | 3600 nM | 17.2 nM
B21 | – | 44 | 588 nM | 13.4 nM
